According to patent publication US20230220399:
Read-outs that look alike come from different tables or passages of the source.

Legend:
KRAS G12D G12D, P01116-2 [1] = details: ELISA, SB18, 37 C
[2] = biological target: transferrin (TF) (Homo sapiens) (UniProt P02787); details: ELISA, SB18, 37 C
KRAS G12D G12D, P01116-2 [3] = details: Nap-dU at n (6) positions; ELISA, SB18, 37 C
[4] = biological target: transferrin (TF) (Homo sapiens) (UniProt P02787); details: Nap-dU at n (6) positions; ELISA, SB18, 37 C
KRAS G12D G12D, P01116-2 [5] = test: BLI; details: Nap-dU at n (6) positions [4,9,13,19,26,27,28,30,39]; SB18, 37 C, immobilised biotin ligand
KRAS G12C G12C, P01116-2 = details: Nap-dU at n (6) positions [4,9,13,19,26,27,28,30,39]; ELISA, SB18, 37 C; text p364 misprints unit/protein
[6] = biological target: human serum albumin (HSA) (Homo sapiens) (UniProt P02768); details: ELISA, SB18, 37 C
KRAS G12V G12V, P01116-2 = details: Nap-dU at n (6) positions [28,30,39,40,41,45,46,47,54,57]; ELISA, SB18, 37 C
[7] = biological target: CD3 delta/epsilon heterodimer (UniProt P04234+P07766); details: Nap-dU at n (6) positions [Nap-dU at 1,6,7,8,9,12,18,19,20,23,32]; ELISA, SB18, 37 C
[8] = Nap-dU at n (6) positions [17,23,30,31,32,44]
[9] = Nap-dU at n (6) positions [Nap-dU at 2,6,8,9,11,16,17,22,24,27,35]
[10] = Nap-dU at n (6) positions [4,9,13,19,26,27,28,30,39]
[11] = Nap-dU at n (6) positions [22,28,35,36,37,49]
[12] = Nap-dU at n (6) positions [5,10,14,20,27,28,29,31,40]

Chain of transferrin (TF) (Homo sapiens) (P02787 20-698): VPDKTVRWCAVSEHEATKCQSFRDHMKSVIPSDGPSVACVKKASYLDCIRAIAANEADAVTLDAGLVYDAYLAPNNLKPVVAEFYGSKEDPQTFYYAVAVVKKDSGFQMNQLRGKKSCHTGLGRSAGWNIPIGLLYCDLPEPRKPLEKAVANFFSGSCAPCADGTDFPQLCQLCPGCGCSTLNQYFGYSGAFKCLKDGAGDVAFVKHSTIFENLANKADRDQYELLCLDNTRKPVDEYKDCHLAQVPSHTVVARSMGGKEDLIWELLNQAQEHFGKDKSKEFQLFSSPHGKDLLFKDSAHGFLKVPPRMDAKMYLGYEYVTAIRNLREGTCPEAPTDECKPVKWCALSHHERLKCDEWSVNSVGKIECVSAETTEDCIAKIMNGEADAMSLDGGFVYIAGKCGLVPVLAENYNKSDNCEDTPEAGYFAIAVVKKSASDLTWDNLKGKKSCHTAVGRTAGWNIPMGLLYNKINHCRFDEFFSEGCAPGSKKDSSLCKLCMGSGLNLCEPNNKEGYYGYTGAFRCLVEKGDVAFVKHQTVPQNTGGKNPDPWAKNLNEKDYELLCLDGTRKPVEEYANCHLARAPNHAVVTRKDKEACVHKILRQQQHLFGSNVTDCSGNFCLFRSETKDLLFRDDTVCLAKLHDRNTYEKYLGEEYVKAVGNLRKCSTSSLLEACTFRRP
Chain of CD3 delta/epsilon heterodimer (P04234 22-105, stated change not applied, chain 1 of 2): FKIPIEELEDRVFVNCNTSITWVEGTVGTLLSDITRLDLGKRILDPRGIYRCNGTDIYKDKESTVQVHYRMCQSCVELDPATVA
Chain of CD3 delta/epsilon heterodimer (P07766 23-126, stated change not applied, chain 2 of 2): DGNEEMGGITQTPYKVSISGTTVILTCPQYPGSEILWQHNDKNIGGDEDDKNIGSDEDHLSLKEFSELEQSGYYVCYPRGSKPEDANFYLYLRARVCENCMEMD

## ACCGTCTGCCTGAAAGTCCGGATGGCAGCTTTACAGGCAGAACTAACG [TD007]
KRAS G12D G12D, P01116-2 [1]; [8]
  Kd: 2120 nM
[2]; [8]
  Kd: 431 nM

## ATGCCTCTTCTGCAGTTACGGTGTGATCGCCCAATAGCAGCCAC [TD012]
KRAS G12D G12D, P01116-2 [1]; [9]
  Kd: 1310 nM
[2]; [9]
  Kd: 14.9 nM

## CAGGNCGAGCNGNACGCGNGNGNGACCNGAAGAC [TD013]
KRAS G12D G12D, P01116-2 [3]
  Kd: 1550 nM
[4]
  Kd: 646 nM

## GACTAGCATAAGTCCGGATGGCAGCTTTATGCCGACCAT [AD005]
KRAS G12D G12D, P01116-2 [5]
  Kd: 35.5 nM
KRAS G12C G12C, P01116-2
  Kd: 2.5 nM
KRAS G12D G12D, P01116-2 [1]; [10]
  Kd: 22.9 nM
[6]; [10]
  Kd: 122 nM

## GAGTGACCGTCTGCCTGAAAGTCCGGATGGCAGCTTTACAGGCAGAACTAACG [TD006]
KRAS G12D G12D, P01116-2 [1]; [11]
  Kd: 628 nM
[2]; [11]
  Kd: 968 nM

## GAGTGACCGTCTGCCTGAGCAGGAGGATGTGACACAACTTTGCATTTCAAGCCTGATCAGCCACACCACCAGCC [AV001]
KRAS G12V G12V, P01116-2
  Kd: 58 nM
[6]; Nap-dU at n (6) positions [28,30,39,40,41,45,46,47,54,57]
  Kd: 11.2 nM

## GGACTAGCATAAGTCCGGATGGCAGCTTTATGCCGACCAT [TD003]
KRAS G12D G12D, P01116-2 [1]; [12]
  Kd: 2720 nM
[2]; [12]
  Kd: 141 nM

## TGCCCTTTTAATCCGACTTTAATGGCCACGCTCAC [AA004]
[7]
  Kd: 10.2 nM
[6]; Nap-dU at n (6) positions [Nap-dU at 1,6,7,8,9,12,18,19,20,23,32]
  Kd: 9.54 nM
